In the Human Domainome abundance scans (Beltran et al. 2025):
± gives the uncertainty stated by the source.

Experiment: abundance fitness (aPCA) (normalised: wild type 0, dead -1); higher = more abundant; growth selection in yeast, the domain comes from the species named
Conditions: Homo sapiens
Substance “E3 ubiquitin-protein ligase NEDD4-like P192R, Q96PU5” has an abundance fitness of 0.012 ± 0.055. Substance “E3 ubiquitin-protein ligase NEDD4-like P192S, Q96PU5” has an abundance fitness of -0.201 ± 0.082. Substance “E3 ubiquitin-protein ligase NEDD4-like P192W, Q96PU5” has an abundance fitness of -0.484 ± 0.072. For “E3 ubiquitin-protein ligase NEDD4-like P192Y, Q96PU5”, the abundance fitness was -0.31 ± 0.068. For “E3 ubiquitin-protein ligase NEDD4-like P193A, Q96PU5”, the abundance fitness was -0.12 ± 0.068. In the case of “E3 ubiquitin-protein ligase NEDD4-like P193C, Q96PU5”, the abundance fitness is reported as 0.042 ± 0.095. With “E3 ubiquitin-protein ligase NEDD4-like P193D, Q96PU5” the abundance fitness was -0.131 ± 0.076. “E3 ubiquitin-protein ligase NEDD4-like P193E, Q96PU5” gave an abundance fitness of -0.07 ± 0.087. “E3 ubiquitin-protein ligase NEDD4-like P193F, Q96PU5” showed an abundance fitness of -0.339 ± 0.11. “E3 ubiquitin-protein ligase NEDD4-like P193G, Q96PU5” showed an abundance fitness of -0.086 ± 0.058. With “E3 ubiquitin-protein ligase NEDD4-like P193H, Q96PU5” the abundance fitness was -0.058 ± 0.11. “E3 ubiquitin-protein ligase NEDD4-like P193I, Q96PU5” showed an abundance fitness of -0.079 ± 0.052. Substance “E3 ubiquitin-protein ligase NEDD4-like P193K, Q96PU5” has an abundance fitness of -0.033 ± 0.069. “E3 ubiquitin-protein ligase NEDD4-like P193L, Q96PU5” gave an abundance fitness of -0.103 ± 0.055. “E3 ubiquitin-protein ligase NEDD4-like P193N, Q96PU5” showed an abundance fitness of -0.25 ± 0.11. In the case of “E3 ubiquitin-protein ligase NEDD4-like P193Q, Q96PU5”, the abundance fitness is reported as -0.21 ± 0.098. Substance “E3 ubiquitin-protein ligase NEDD4-like P193R, Q96PU5” has an abundance fitness of 0.025 ± 0.055. “E3 ubiquitin-protein ligase NEDD4-like P193S, Q96PU5” showed an abundance fitness of -0.042 ± 0.063. In the case of “E3 ubiquitin-protein ligase NEDD4-like P193T, Q96PU5”, the abundance fitness is reported as -0.177 ± 0.075. Work on “E3 ubiquitin-protein ligase NEDD4-like P193V, Q96PU5” yielded an abundance fitness of -0.003 ± 0.054. In the case of “E3 ubiquitin-protein ligase NEDD4-like P193W, Q96PU5”, the abundance fitness is reported as -0.359 ± 0.067. “E3 ubiquitin-protein ligase NEDD4-like P193Y, Q96PU5” showed an abundance fitness of -0.057 ± 0.062. “E3 ubiquitin-protein ligase NEDD4-like P194A, Q96PU5” gave an abundance fitness of -0.057 ± 0.066. Substance “E3 ubiquitin-protein ligase NEDD4-like P194C, Q96PU5” has an abundance fitness of -0.147 ± 0.076. Substance “E3 ubiquitin-protein ligase NEDD4-like P194D, Q96PU5” has an abundance fitness of -0.008 ± 0.09. In the case of “E3 ubiquitin-protein ligase NEDD4-like P194E, Q96PU5”, the abundance fitness is reported as -0.103 ± 0.072. In the case of “E3 ubiquitin-protein ligase NEDD4-like P194F, Q96PU5”, the abundance fitness is reported as -0.443 ± 0.084. In the case of “E3 ubiquitin-protein ligase NEDD4-like P194G, Q96PU5”, the abundance fitness is reported as -0.05 ± 0.059. In the case of “E3 ubiquitin-protein ligase NEDD4-like P194H, Q96PU5”, the abundance fitness is reported as -0.094 ± 0.073. In the case of “E3 ubiquitin-protein ligase NEDD4-like P194I, Q96PU5”, the abundance fitness is reported as -0.294 ± 0.1. “E3 ubiquitin-protein ligase NEDD4-like P194K, Q96PU5” gave an abundance fitness of 0.071 ± 0.063. Substance “E3 ubiquitin-protein ligase NEDD4-like P194L, Q96PU5” has an abundance fitness of -0.094 ± 0.054. In the case of “E3 ubiquitin-protein ligase NEDD4-like P194M, Q96PU5”, the abundance fitness is reported as 0.013 ± 0.072. Substance “E3 ubiquitin-protein ligase NEDD4-like P194N, Q96PU5” has an abundance fitness of -0.304 ± 0.11. “E3 ubiquitin-protein ligase NEDD4-like P194Q, Q96PU5” gave an abundance fitness of 0.061 ± 0.079. With “E3 ubiquitin-protein ligase NEDD4-like P194R, Q96PU5” the abundance fitness was 0.048 ± 0.065. For “E3 ubiquitin-protein ligase NEDD4-like P194S, Q96PU5”, the abundance fitness was -0.06 ± 0.065. In the case of “E3 ubiquitin-protein ligase NEDD4-like P194T, Q96PU5”, the abundance fitness is reported as -0.107 ± 0.07. Substance “E3 ubiquitin-protein ligase NEDD4-like P194V, Q96PU5” has an abundance fitness of -0.002 ± 0.058. “E3 ubiquitin-protein ligase NEDD4-like P194W, Q96PU5” gave an abundance fitness of -0.327 ± 0.076. For “E3 ubiquitin-protein ligase NEDD4-like P194Y, Q96PU5”, the abundance fitness was -0.279 ± 0.093. Work on “E3 ubiquitin-protein ligase NEDD4-like P196A, Q96PU5” yielded an abundance fitness of -0.01 ± 0.07. Work on “E3 ubiquitin-protein ligase NEDD4-like P196D, Q96PU5” yielded an abundance fitness of -0.231 ± 0.08. For “E3 ubiquitin-protein ligase NEDD4-like P196F, Q96PU5”, the abundance fitness was -0.567 ± 0.098. Substance “E3 ubiquitin-protein ligase NEDD4-like P196H, Q96PU5” has an abundance fitness of -0.413 ± 0.097. In the case of “E3 ubiquitin-protein ligase NEDD4-like P196K, Q96PU5”, the abundance fitness is reported as -0.402 ± 0.11. “E3 ubiquitin-protein ligase NEDD4-like P196L, Q96PU5” gave an abundance fitness of -0.126 ± 0.078. “E3 ubiquitin-protein ligase NEDD4-like P196M, Q96PU5” gave an abundance fitness of -0.011 ± 0.071. “E3 ubiquitin-protein ligase NEDD4-like P196N, Q96PU5” gave an abundance fitness of -0.228 ± 0.11. In the case of “E3 ubiquitin-protein ligase NEDD4-like P196Q, Q96PU5”, the abundance fitness is reported as -0.217 ± 0.073. “E3 ubiquitin-protein ligase NEDD4-like P196R, Q96PU5” gave an abundance fitness of -0.106 ± 0.063. “E3 ubiquitin-protein ligase NEDD4-like P196S, Q96PU5” gave an abundance fitness of -0.138 ± 0.068. With “E3 ubiquitin-protein ligase NEDD4-like P196T, Q96PU5” the abundance fitness was -0.239 ± 0.083. “E3 ubiquitin-protein ligase NEDD4-like P196V, Q96PU5” gave an abundance fitness of -0.184 ± 0.056. For “E3 ubiquitin-protein ligase NEDD4-like P196W, Q96PU5”, the abundance fitness was -0.416 ± 0.057. “E3 ubiquitin-protein ligase NEDD4-like P196Y, Q96PU5” showed an abundance fitness of -0.384 ± 0.11. For “E3 ubiquitin-protein ligase NEDD4-like P197A, Q96PU5”, the abundance fitness was 0.022 ± 0.071. “E3 ubiquitin-protein ligase NEDD4-like P197C, Q96PU5” showed an abundance fitness of -0.249 ± 0.095. Substance “E3 ubiquitin-protein ligase NEDD4-like P197D, Q96PU5” has an abundance fitness of -0.25 ± 0.11. For “E3 ubiquitin-protein ligase NEDD4-like P197E, Q96PU5”, the abundance fitness was 0.031 ± 0.074. Substance “E3 ubiquitin-protein ligase NEDD4-like P197F, Q96PU5” has an abundance fitness of -0.006 ± 0.061. “E3 ubiquitin-protein ligase NEDD4-like P197H, Q96PU5” gave an abundance fitness of -0.097 ± 0.085. Substance “E3 ubiquitin-protein ligase NEDD4-like P197I, Q96PU5” has an abundance fitness of 0.18 ± 0.11. For “E3 ubiquitin-protein ligase NEDD4-like P197K, Q96PU5”, the abundance fitness was 0.267 ± 0.094. For “E3 ubiquitin-protein ligase NEDD4-like P197L, Q96PU5”, the abundance fitness was 0.048 ± 0.075. For “E3 ubiquitin-protein ligase NEDD4-like P197M, Q96PU5”, the abundance fitness was 0.006 ± 0.076. “E3 ubiquitin-protein ligase NEDD4-like P197Q, Q96PU5” showed an abundance fitness of -0.081 ± 0.099. In the case of “E3 ubiquitin-protein ligase NEDD4-like P197R, Q96PU5”, the abundance fitness is reported as 0.093 ± 0.057. “E3 ubiquitin-protein ligase NEDD4-like P197S, Q96PU5” showed an abundance fitness of 0.073 ± 0.06. For “E3 ubiquitin-protein ligase NEDD4-like P197T, Q96PU5”, the abundance fitness was -0.017 ± 0.087. For “E3 ubiquitin-protein ligase NEDD4-like P197V, Q96PU5”, the abundance fitness was -0.009 ± 0.06. “E3 ubiquitin-protein ligase NEDD4-like P197W, Q96PU5” showed an abundance fitness of -0.237 ± 0.089. In the case of “E3 ubiquitin-protein ligase NEDD4-like P197Y, Q96PU5”, the abundance fitness is reported as -0.058 ± 0.08. With “E3 ubiquitin-protein ligase NEDD4-like P224A, Q96PU5” the abundance fitness was -0.765 ± 0.08. “E3 ubiquitin-protein ligase NEDD4-like P224C, Q96PU5” showed an abundance fitness of -0.772 ± 0.11. Work on “E3 ubiquitin-protein ligase NEDD4-like P224D, Q96PU5” yielded an abundance fitness of -0.772 ± 0.14. For “E3 ubiquitin-protein ligase NEDD4-like P224E, Q96PU5”, the abundance fitness was -0.612 ± 0.086. Substance “E3 ubiquitin-protein ligase NEDD4-like P224F, Q96PU5” has an abundance fitness of -1.1 ± 0.21. “E3 ubiquitin-protein ligase NEDD4-like P224G, Q96PU5” gave an abundance fitness of -0.734 ± 0.065. “E3 ubiquitin-protein ligase NEDD4-like P224H, Q96PU5” showed an abundance fitness of -0.694 ± 0.17. “E3 ubiquitin-protein ligase NEDD4-like P224I, Q96PU5” gave an abundance fitness of -0.877 ± 0.18. Substance “E3 ubiquitin-protein ligase NEDD4-like P224K, Q96PU5” has an abundance fitness of -0.552 ± 0.089. Work on “E3 ubiquitin-protein ligase NEDD4-like P224L, Q96PU5” yielded an abundance fitness of -0.93 ± 0.06. Work on “E3 ubiquitin-protein ligase NEDD4-like P224M, Q96PU5” yielded an abundance fitness of -0.796 ± 0.11. “E3 ubiquitin-protein ligase NEDD4-like P224N, Q96PU5” showed an abundance fitness of -1.15 ± 0.18. Substance “E3 ubiquitin-protein ligase NEDD4-like P224R, Q96PU5” has an abundance fitness of -0.94 ± 0.056. In the case of “E3 ubiquitin-protein ligase NEDD4-like P224S, Q96PU5”, the abundance fitness is reported as -0.711 ± 0.059. Substance “E3 ubiquitin-protein ligase NEDD4-like P224T, Q96PU5” has an abundance fitness of -0.828 ± 0.11. “E3 ubiquitin-protein ligase NEDD4-like P224V, Q96PU5” showed an abundance fitness of -1.01 ± 0.086. For “E3 ubiquitin-protein ligase NEDD4-like P224Y, Q96PU5”, the abundance fitness was -1.18 ± 0.095. Work on “E3 ubiquitin-protein ligase NEDD4-like Q185C, Q96PU5” yielded an abundance fitness of -0.793 ± 0.065. “E3 ubiquitin-protein ligase NEDD4-like Q185D, Q96PU5” showed an abundance fitness of -0.097 ± 0.1. “E3 ubiquitin-protein ligase NEDD4-like Q185E, Q96PU5” gave an abundance fitness of -0.534 ± 0.097. For “E3 ubiquitin-protein ligase NEDD4-like Q185F, Q96PU5”, the abundance fitness was -0.257 ± 0.12. “E3 ubiquitin-protein ligase NEDD4-like Q185G, Q96PU5” gave an abundance fitness of -0.723 ± 0.058.
